# US20140072563A1 (Regeneron, published 2014)
# Numbering of substitutions follows the chain as printed. Numbers in names are those of the source.
# T1: hErbB3.mFc (soluble dimeric human ErbB3 extracellular domain fused to mouse Fc) (human)
# T1 construct: called dimeric
# T1 chain: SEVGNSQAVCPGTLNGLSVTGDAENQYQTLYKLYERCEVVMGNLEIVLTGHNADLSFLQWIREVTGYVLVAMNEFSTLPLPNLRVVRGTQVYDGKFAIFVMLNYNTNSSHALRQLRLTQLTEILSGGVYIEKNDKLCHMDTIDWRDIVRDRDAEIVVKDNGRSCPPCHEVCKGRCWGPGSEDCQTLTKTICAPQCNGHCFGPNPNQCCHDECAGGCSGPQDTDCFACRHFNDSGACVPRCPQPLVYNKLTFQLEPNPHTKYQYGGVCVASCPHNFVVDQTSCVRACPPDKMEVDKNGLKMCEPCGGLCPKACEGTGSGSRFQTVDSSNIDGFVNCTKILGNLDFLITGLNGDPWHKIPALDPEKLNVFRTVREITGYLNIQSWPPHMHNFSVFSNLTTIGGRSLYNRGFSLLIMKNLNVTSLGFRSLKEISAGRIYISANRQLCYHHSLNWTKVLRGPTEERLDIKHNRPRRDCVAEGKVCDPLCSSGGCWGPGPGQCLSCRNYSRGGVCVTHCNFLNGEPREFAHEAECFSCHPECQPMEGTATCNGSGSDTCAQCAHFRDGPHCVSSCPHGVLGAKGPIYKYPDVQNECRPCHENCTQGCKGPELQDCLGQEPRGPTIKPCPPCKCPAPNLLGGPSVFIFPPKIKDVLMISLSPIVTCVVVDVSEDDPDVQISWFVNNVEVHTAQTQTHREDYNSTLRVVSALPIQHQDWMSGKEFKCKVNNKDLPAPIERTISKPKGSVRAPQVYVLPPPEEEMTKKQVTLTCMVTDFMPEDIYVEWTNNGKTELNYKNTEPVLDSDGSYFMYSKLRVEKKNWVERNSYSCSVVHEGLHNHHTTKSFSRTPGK
# B1: H4H2098P (antibody, V domains shown)
# VH: QVQLVESGGGVVQPGRSLRLSCAASGFTFSSFGMHWVRQAPGKGLEWVAVIWYVEINKYHADSVKGRFTISRDDSKNTVYLQMNSLRAEDTAVYYCARDWNDGDYGMDVWGQGTTVTVSS
# VL: DIQLTQSPSFLSASVGDRVTITCWASQGISSFLAWYQQKAGKAPRLLIYAASTLQTGVPSRFSGSGSGTEFTLTISSLQPGDFATYHCQQLNSYPYTFGQGTKLEIKR
# notes: Fully human, human IgG4 Fc (H4H prefix)
# B2: H4H2108P (antibody, V domains shown)
# VH: EVQLLESGGDLVQPGGSLRLSCATSGFSFSSDAMNWVRQAPGKGLEWVSGISGSGGNTYYADSVKGRFTISRDISKSTLSLQMNSLRAEDTAVYYCAKEGTNMVRGVVMEDNGMDVWGQGTTVTVSA
# VL: DIQMTQSPSSVSASVGDRVTITCRASQGISDYLAWYQQKPGKAPKLLIYAASSLQSGVPSRFSGRGSGTDFTLTISTLQPEDFATYYCQQANSFPLTFGGGTKVDIKR
# notes: as for B1
# B3: H4H2146P (antibody, V domains shown)
# VH: QVQLVESGGGVVQPGRSLRLSCAASGFTFINYGIHWVRQGPGKGLEWVAVIWYDGSNEWYADSVKGRFTISRDNSKNTVYLEMNKLRAEDTAVYYCAREEEDYGMDVWGQGTTVTVSS
# VL: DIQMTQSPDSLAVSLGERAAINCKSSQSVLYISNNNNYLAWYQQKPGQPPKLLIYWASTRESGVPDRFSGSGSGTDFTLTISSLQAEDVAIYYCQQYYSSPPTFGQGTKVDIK
# notes: as for B1
# B4: H4H2092P (antibody, V domains shown)
# VH: EVQLVESGGGVVRPGGSLRLSCAASGFTFEDYGMNWVRQVPGKGLEWVSGTNWNGGITGYTGSVKGRFTISRDNAKNSLYLQMNSLRAEDTALYHCARDSGDQDAFDIWGQGTMVTVSS
# VL: DIQLTQSPSFLSASVGDRVTITCWASQDISSYLAWYQQKPGKAPKLLIYAASTFQSGVPSRFSGSGSGTEFTLTISNLQPEDFATYYCQQLDSYPLSFGGGTKVEIKR
# notes: as for B1
# B5: H4H2094P (antibody, V domains shown)
# VH: EVQLVESGGGLVQPGGSLRLSCAASGFTFSSYDMHWVRQATGKGLEWVSAIGPAGDTYYPVSAMGRFTISRDDAKNSLYLQMNSLRAGDTAVYYCAREGVTIRPDDYFGLDVWGQGTTVTVSA
# VL: B4 VL with D28G, S31D, Q38K, K45Q, S52T, F54L, N77S, D92N, S93T, S97T
# notes: as for B1
# B6: H4H2111P (antibody, V domains shown)
# VH: QVQLVESGGGVVQPGRSLRLSCAASGFTFNNYGMHWVRQAPGKGLAWVAVMWYSESHKYYADSVKGRFTISRDNSKNTLYLEMNSLRVEDTAIYYCARDLGDPDAFDIWGQGTMVTVSS
# VL: B4 VL with D28G, A50G, F54L, N77S, D92N, S97T
# notes: as for B1
# B7: H4H2143P (antibody, V domains shown)
# VH: EVQLVESGGGLVQPGRSLRLSCAASGFTFGDYAMHWVRQAPGKGLEWVSGINLNSGTIGYADSVKGRFTISRDNAKNSLYLQMNSLRAEDTAFYYCAKDIDGYYHYAMDVWGQGTTVTVSS
# VL: B4 VL with I2V, Q3V, L4M, D28G, A50D, F54L, Q55E, L91V, D92N, S97T
# notes: as for B1
# B8: H4H2147P (antibody, V domains shown)
# VH: QVQLVESGGGLVKPGGSLRLSCAASGFTFSDFNMGWIRQAPGKGLEWVSHISGSGNVIYYADSVKGRFAISRDNGKNSLYLQVNSLRAEDTAVYYCARDIGDSDAFDIWGQGTMVTVSS
# VL: B4 VL with A50G, F54L, Q55E, N77S, F83V, D92N, S93T, S97T
# notes: as for B1
# B9: H4H2140P (antibody, V domains shown)
# VH: EVQLVESGGGLVQPGGSLRLSCAASGFSVSYYDMHWVRQVTGKGLEWVSAIGPAGDTYYPGSVKGRFTISREDATNSLYLQIHSLGAGDTAVYYCAREGAIAARPDDYYGMDVWGQGTTVTVSS
# VL: B4 VL with F54L, N77S, D92N, S97T
# notes: as for B1
# B10: H4H2102P (antibody, V domains shown)
# VH: EVQLVESGGGLVQPGGSLRLSCAASGFTFSNYDIHWVRQATGKGLEWVSAIGPAGDTYYSDSVKGRFTISREDAKNSLYLQMSSLRAGDTAVYYCASEGIAVRPDDYYGMDVWGQGTTVTVSA
# VL: B4 VL with S30T, Q38K, F54L, N77S, T85A, D92N, S97T, E105D
# notes: as for B1
# B11: H4H2132P (antibody, V domains shown)
# VH: EVQLVESGGGVVRPGGSLRLSCAASGFTFDDYGMSWVRQFPGKGLEWVSSIDGNGGNTGYSDSVKGRFTISRDNAKNSLHLQMNSLRAEDTALYHCARDPDYDSVWGNYRPFDYWGQGTLVTVSS
# VL: DIVMTQSPDSLAVSLGERATINCKSSQSVLSSSNDNNYLAWFQQKPGQPPNLLIYWASTRDSGVPDRFSASGSGTDFTLAISSLQAEDVAVYYCHQYYSSPPTFGQGTKVEIKR
# notes: as for B1
# B12: H4H2138P (antibody, V domains shown)
# VH: QVQLQESGPGLVKPSQTLSLTCTVSGGSINSGGYYWSWIRQHPGKGLEWIGYISYSGNTNYNPSLKSRVTISVDTSKNQFSLTLTSVTAADTAVYYCARDSDVDTGLVDGFDVWGQGTMVTVSS
# VL: DIVMTQSPSSVSASVGDRVTITCRASQGVSSWLAWYQQKPGKAPKLLIYTTSSLQSGVPSRFSGSGSGTDFTLTISSLQPEDFATYYCQQSNSFPFTFGPGTKVEIK
# notes: as for B1
# B13: H4H2084P (antibody, V domains shown)
# VH: QVQLVESGGGVVQSGKSLRLSCVASGFTFSNYGMHWVRQTPGKGLEWVARIWFDGTNKYYTDSVKGRFTLSRDSSKNTLYLQMNSLRAEDTAVYFCAREESLELDHYVMDVWGQGTTVTVSS
# VL: AIQMTQSPSSLSASVGDRVTITCRASQDIRDDLGWFQQKPGKAPNLLIYAASSLQSGVPSRFSGSGSGTDFTLTISSLQPEDFATYYCLQDYNYPLTFGGGTKVEIKR
# notes: as for B1
# B14: H4H2114P (antibody, V domains shown)
# VH: QVQLVESGGGVVQPGRSLRLSCAASGFTFSSYGMHWVRQAPGKGLEWVAGMSYDGSSKYYEDSVKGRFTISRDNSKNTLNLQMNSLRVEDTAVYYCAKERDYVEYVDSYYGMDVWGQGTTVTVSA
# VL: B13 VL with D28G, D31N, F36Y, N45K, L46V, D70V
# notes: as for B1
# Molecular target: hErbB3.mmh (soluble monomeric human ErbB3 extracellular domain with C-terminal myc-myc-hexahistidine tag) (human, UniProt P21860 20-642)
# Assay: SPR (Biacore), 25 C, mAb capture format
# Description: (§1) (Tables 2-4). Measurements were conducted on a Biacore 2000 or T100 instrument. […] Kinetic association (kₐ) and dissociation (kd) rate constants were determined by processing and fitting the data to a 1:1 binding model using Scrubber 2.0 curve fitting software.
Kd [nM],T½ [min],koff [s⁻¹],kon [M⁻¹ s⁻¹],Binder
0.069,135,7.89e-05,1.14e+06,B1
0.0418,131,8.13e-05,1.95e+06,B2
0.0124,308,3.46e-05,2.79e+06,B3
0.0278,103,0.000103,3.72e+06,B4
0.00722,780,1.37e-05,1.89e+06,B5
0.0531,91,0.000118,2.21e+06,B6
0.0531,109,9.73e-05,1.83e+06,B7
0.0438,98,0.000108,2.47e+06,B8
0.0198,326,3.27e-05,1.66e+06,B9
0.0551,218,4.88e-05,886000,B10
0.0177,279,3.81e-05,2.16e+06,B11
0.0209,213,5.01e-05,2.39e+06,B12
0.0239,179,5.96e-05,2.49e+06,B13
0.106,108,9.88e-05,929000,B14

# Molecular target: T1, hErbB3.mFc (soluble dimeric human ErbB3 …)
# Assay: SPR (Biacore), 25 C, mAb capture format
# Description: as §1
Kd [pM],T½ [min],koff [s⁻¹],kon [M⁻¹ s⁻¹],Binder
4.06,1190,8.97e-06,2.21e+06,B1
1.46,2460,4.33e-06,2.96e+06,B2
0.435,5390,1.98e-06,4.54e+06,B3
1.45,1430,7.46e-06,5.16e+06,B4
0.452,7780,1.37e-06,3.03e+06,B5
2.49,1220,8.69e-06,3.5e+06,B6
1.75,2300,4.63e-06,2.86e+06,B7
1.5,2320,4.58e-06,3.33e+06,B8
0.393,10800,9.86e-07,2.51e+06,B9
1.43,4720,2.26e-06,1.58e+06,B10
0.958,3180,3.35e-06,3.49e+06,B11
1.47,1950,5.46e-06,3.71e+06,B12
1.03,2700,3.95e-06,3.83e+06,B13
5.41,1340,7.98e-06,1.48e+06,B14
